Results on 41 sequences are retold here after the nanobody polyreactivity screen of Harvey et al. (2022).

This data set is described as follows: yeast display, Sf9 membrane polyspecificity reagent, FACS + sequencing; frameworks hold sequencing errors. The method in brief:
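Using colony PCR, genes from sorted yeast display clones were amplified, then sequenced on MiSeq at 2 × 250 and filtered by CDR length. The clones had been stained with 10% biotinylated, detergent-solubilized Sf9 membrane reagent for 1 hour at 4 °C and sorted by FACS into low and high (top ~1%) gates on anti-HA and streptavidin fluorescence. Polyreactivity labels come from the gate of origin.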
With “QVQLVESGGGLVQAGGSLRLSCAASGITFKPYGMGWYRQAPGKERELVATISWSGGSTNYADSVKGRFTISRDNAKNTVYLQMNILKPEDTAVYYCAATSYSHTEIRYDYWGQGTQVTVSS”, the “polyreactivity (PSR sort gate)” value is “low polyreactivity”.
With “QVQLVESGGGLVQAGGSLRLSCAASGITFKRYAMGWYRQAPRKERELVAAITTSGGSTYYADSVKGRFTNSRDNAKNTVYLLMNSLKPEDTAVNYCNAEDYWGKYYYWGQGTQVTVSS”, the “polyreactivity (PSR sort gate)” value was “low polyreactivity”.
“QVQLVESGGGLVQAGGSLRLSCAASGITFKRYTMGWYRQAPGKERELVAANSRSGGSTYYADSVKGRFTISRDTAKNTVYLQMNSLKPEDTAVYYCAAAVGGYNVAYDYWGQGTQVTVSS”: the “polyreactivity (PSR sort gate)” value is listed as “high polyreactivity”.
As to “QVQLVESGGGLVQAGGSLRLSCAASGITFKSNAMGWYRQAPGKERELVAAISRRASSTYYADSVKGRFTISRDNAKNTVYLQMNSLKPEDTAVYYCAARSTVLATVSYPFGRYYWGQGTQVTVSS”, the “polyreactivity (PSR sort gate)” value was “high polyreactivity”.
In the case of “QVQLVESGGGLVQAGGSLRLSCAASGITFKYYAMGWYRQAPGKERELVAAISRSGGTTYYADSVKGRFTISRDNAKNTVYLQMNSLKPEDTAVYYCNKYTHYYDYDYWGQGTQVTVSS” it was “high polyreactivity”; in that of “QVQLVESGGGLVQAGGSLRLSCAASGITFKYYTMGWYRQAPGKERELVAAITADTGTTYYADSVKGRFTISRDNAKNTVYLQMNSLKPEDTAVYYCATRDVFYDDDYWGQGTQVTVSS”, “high polyreactivity”; in that of “QVQLVESGGGLVQAGGSLRLSCAASGITFKYYTMGWYRQAPGKERELVAAITSRAGRTYADSVKGRFTISRDNAKNTVYLQMNSLKPEDTAVYYCARRVDYPYAYDYWGQGTQVTVSS”, “high polyreactivity”.
Take “QVQLVESGGGLVQAGGSLRLSCAASGITFLGNAMGWYRQAPGKERELVAAISASGGRTYYADSVKGRFTISRDNAKNTVYLQMNSLKPEDTPVYYCAAASKPWYYYWGQGTQVTVSS”: the “polyreactivity (PSR sort gate)” value is on record as “high polyreactivity”.
For “QVQLVESGGGLVQAGGSLRLSCAASGITFLHYAMGWYRQAPGKERELVARITYSGSSTYYADSVKGRFTISRDNAKNTVYLQMNSVKPEDTAVYYCNARASWGRWSRTGTPRYDYWGQGTQVTVSS”, the “polyreactivity (PSR sort gate)” value is on record as “high polyreactivity”.
On to “QVQLVESGGGLVQAGGSLRLSCAASGITFLKNAMGWYRQAPGKERELVAAISSSGGSTYYADSVKGRFTISRDNAKNTVYLQMNSLKPEDTAVYYCAALSVGKRYRYEYWGQGTQVTVSS”, for which the “polyreactivity (PSR sort gate)” value is on record as “high polyreactivity”.
Regarding “QVQLVESGGGLVQAGGSLRLSCAASGITFLSNAMGWYRQAPGKERELVAAISRGGGTTYYADSVKGRFTISRDIAKNTVYLQMNSLKPEDTAVYYCAKGRCSSSRFDYWGQVTQVTVSS”, the “polyreactivity (PSR sort gate)” value was “high polyreactivity”.
As to “QVQLVESGGGLVQAGGSLRLSCAASGITFLYYAMGGYRQAPGKERELVAAITSGGSTYYADSVKGRFTISRDNAKNTVYLQMNSLKPEDTAVYYCAAGTYDGGYHYDYWGEGTQVTVSS”, the “polyreactivity (PSR sort gate)” value is “high polyreactivity”.
In the case of “QVQLVESGGGLVQAGGSLRLSCAASGITFLYYAMGWYRQAPGKERELVAAISGGGASTYYADSVKGRFTSSRDNAKNTVYLQMNSLKPEDTAVYDCAAGYRDFFRARFGYWGQGTQVTVAS” it was “high polyreactivity”; in that of “QVQLVESGGGLVQAGGSLRLSCAASGITFLYYAMGWYRQAPGKERELVAAITRGGRTNYADSVKGRFTISRDNAKNTVYLQMNSLKPEDTAVYYCAARRSRPTYYSTGVNYWGQGTQVTVSS”, “high polyreactivity”.
In the case of “QVQLVESGGGLVQAGGSLRLSCAASGITFLYYAMGWYRQAPGKERELVAGISGTGGRTYYADSVKGRFTISRDNAKNTVYLQMNSLKPEDTAVYYCAARRTTWGYGYWGQGTQVTVSS” it was “high polyreactivity”; in that of “QVQLVESGGGLVQAGGSLRLSCAASGITFNDYALGWYRQAPGKERELDAAIDWSGGRTYYADSVKGRFTISRDNAKNTVYLQMNSLKPEDTAVYYCAAVLYSRLFWYRLDYWGQGTQVTVSS”, “low polyreactivity”.
In the case of “QVQLVESGGGLVQAGGSLRLSCAASGITFNHYAMGWSRQAPGKERELVAVISRTVGSTYYADSVKGRFTISRDNAKNTVYLQMNSLKPEDTAVYYCAARGPRPDGYSGRSDYWGQGTQVTVSS”, the “polyreactivity (PSR sort gate)” value is “high polyreactivity”.
As for “QVQLVESGGGLVQAGGSLRLSCAASGITFNPNAMGLYRQAPGKERELVAVITYRGGSTYYADSVKGRFTISRDNAKNTVYLQMNSLKPEDTAVYYCAAQYIGWHLYWYDYWGQGTQVTVSS”, the “polyreactivity (PSR sort gate)” value was “low polyreactivity”.
As for “QVQLVESGGGLVQAGGSLRLSCAASGITFNRYAMGWYRQAPGKERELVARISLRGGNTYYADSVKGRFTISRDNAKNTVYLQMNSLKPEDTAVYYCAVRGRASLRGTRYGYWGQGTQVTVSS”, the “polyreactivity (PSR sort gate)” value is given as “high polyreactivity”.
Turning to “QVQLVESGGGLVQAGGSLRLSCAASGITFNRYAMGWYRQAPGKERELVARISLRGGNTYYADSVKGRFTISRDNAKNTVYLQMNSLKPEDTAVYYCNAPYYSRRGNSWGQGTQVTVSS”, the “polyreactivity (PSR sort gate)” value was “high polyreactivity”.
Consider “QVQLVESGGGLVQAGGSLRLSCAASGITFNVNAMGWYRQAPGKERELVAAISWRGGSTYYADSVKGRFTISRDNAKNTVYLQMNSLKPEDTAVYYCAAKLDGSSYYYWGQGTQVTVSS”, for which the “polyreactivity (PSR sort gate)” value was “low polyreactivity”.
Regarding “QVQLVESGGGLVQAGGSLRLSCAASGITFNVNAMGWYRQAPGKERELVARITTSGGSTSYADSVKGRFTISRDNAKNTVYLQMNSLKPEYTAVYYCAADRARYYSEYDYWGQGTQVTVSS”, the “polyreactivity (PSR sort gate)” value is “low polyreactivity”.
Take “QVQLVESGGGLVQAGGSLRLSCAASGITFNVYTMGWYRQAPGKERELVAAITSSGGSTYYADSVKGRFTISRDNAKNTVYLQMNSLKPEDTAVYYCAARGWTRYSPSSRWYDYWGQGTQVTVSS”: the “polyreactivity (PSR sort gate)” value is “high polyreactivity”.
For the sequence “QVQLVESGGGLVQAGGSLRLSCAASGITFNYYDMGWYRQEPWKARELVATINRSGGTTYYADSVKGRFTISRDTAKNTVYLQMNTMKPEDTAVYYCNALYSSRGRYHSGYDYWGQGTQVTVSS”, the “polyreactivity (PSR sort gate)” value is “high polyreactivity”.
On to “QVQLVESGGGLVQAGGSLRLSCAASGITFPANAMGWYRQSPGKERELVADISESDGSTYYADSVKGRFTISRDNAKHTVYLQMNRLKPEDTAVYYRAADGTYGTRSDYWGQGTQVTVSS”, for which the “polyreactivity (PSR sort gate)” value is “low polyreactivity”.
For the sequence “QVQLVESGGGLVQAGGSLRLSCAASGITFPFNAMGWYRQAPGKERELDAAISSTGSTNYADSVKGRFTISRDNAKNTVYLQMNSLKPEDTAVYYCNKRSNYRRGDGRRHLYWGQGTQVTVSS”, the “polyreactivity (PSR sort gate)” value is recorded as “low polyreactivity”.
As for “QVQLVESGGGLVQAGGSLRLSCAASGITFPGNAMGWYRQAPGTERELVAVIRKSGTSTYYADSVKGRFTISRDNAKNTVYLQMNSLKPEDTAVYYCAAGGPSTLDDYWGQGTQVTVSS”, the “polyreactivity (PSR sort gate)” value is given as “low polyreactivity”.
Regarding “QVQLVESGGGLVQAGGSLRLSCAASGITFPGYAMGWYRQAPGKERELVAAISIGGITYYADSVKGRFTISRDNAKNTVYLQMNSLKPEDTAVYYCAKDVTDPSSRSDPSGDDYWGQGTQVTVSS”, the “polyreactivity (PSR sort gate)” value is given as “low polyreactivity”.
Regarding “QVQLVESGGGLVQAGGSLRLSCAASGITFPKYAMGWYRQAPGKERELVAAITKSGGSTYYADSVKGRFTISRDNAKNTVYLQMNSLKPEDTAVYYCAARPRYGEYDYWGQGTQVTVSS”, the “polyreactivity (PSR sort gate)” value was “high polyreactivity”.
In the case of “QVQLVESGGGLVQAGGSLRLSCAASGITFPLYAMGWYRQAPGKERELVAAITSTGGTTYYADSVKGRFTISRDNAKNTVYLQMNSLKPEDTAVYYCAAEWLVYGYQRGYYYWGQGTQVTVSS” it was “high polyreactivity”; in that of “QVQLVESGGGLVQAGGSLRLSCAASGITFPPYAMGWYRQAPGKERELVAAISWSGTSTYYADSVKGRFTISRDNAKNPVYLQMNSLKPEDTAVYYCAAVPRHPYHDKYDYWGQGTQVTVSS”, “high polyreactivity”; in that of “QVQLVESGGGLVQAGGSLRLSCAASGITFPVYVMGWYRQAPGKERELVAAISNGGDTYYADSVKGRFTISRDNAKNTVYLQMNSLKPVDTAVYYCAAYYSFPNDYGYEYDYWGQGTQVTVSS”, “low polyreactivity”.
Regarding “QVQLVESGGGLVQAGGSLRLSCAASGITFPWYAMGWYRQAPGKERELVAAINLAGNTNYADSVKGRFTISRDNAKNNVYLQMNSLKPEDTSVYYCAARWRYKYTLGYWGQGTQVTVSS”, the “polyreactivity (PSR sort gate)” value is on record as “high polyreactivity”.
Then “QVQLVESGGGLVQAGGSLRLSCAASGITFPWYAMGWYRQAPGKERELVASKTSGASTNYADSVKGRFTISRDNAKNTVYLQMNSLKPEYSAVYYCARDWYSPVYWAAGYDAWGSGYDYWGQGTQVTVSS”, with “high polyreactivity”; and “QVQLVESGGGLVQAGGSLRLSCAASGITFQDYAMGWYRQAPGKERELVAAISKSGGSTYYADSVKGRFTISRDNAKNTVYLQINSLKPEDTAVYYCATRYLYSNRAYDYWGQGKQVTVSS”, with “high polyreactivity”.
Take “QVQLVESGGGLVQAGGSLRLSCAASGITFQRYALGWYRQAPGKERELVAAITRGGSTNYADSVKGRFTISRDNAKNTVYLQMNSLKPEDTAVYYCAAGARYGYGYWGQGTQVTVSS”: the “polyreactivity (PSR sort gate)” value is listed as “high polyreactivity”.
For “QVQLVESGGGLVQAGGSLRLSCAASGITFQWYTMGWYRQAPGKERELVATISSGGSTNYADSVKGRFTISRDNAKNTVYLQMNSLKPEDTAVYYCAKQPTVYHHYGLGYWGQGTQVTVSS”, the “polyreactivity (PSR sort gate)” value is on record as “low polyreactivity”.
On to “QVQLVESGGGLVQAGGSLRLSCAASGITFRFNAMGWYRQAPGKERELVAAITSSGGRTYYADSVKGRFTISRDNAKNTVYLQMNSLKPEDTAVYYCNVRRLASYSFPYGYWGQGTQVTVSS”, for which the “polyreactivity (PSR sort gate)” value is “high polyreactivity”.
With “QVQLVESGGGLVQAGGSLRLSCAASGITFRGNAMGWYRQAPGKERELVATISSGGITNYADSVKGRFTISRDNAKNTVYLQMNSLKPEDTAVYDCNADNAYGFYRVKYEGYYWGQGTQVTVSS”, the “polyreactivity (PSR sort gate)” value was “low polyreactivity”.
Consider “QVQLVESGGGLVQAGGSLRLSCAASGITFRGYAMGWYRQAPGKERELVAAINSGGSTNYADSVKGRFTISRDNAKNTVYLQMNSLKPEDTAVYYCAAGWYYYWGNYLSYAYDYWGQGTQVTVSS”, for which the “polyreactivity (PSR sort gate)” value is listed as “high polyreactivity”.
Turning to “QVQLVESGGGLVQAGGSLRLSCAASGITFRGYAMGWYRQAPGKERELVAAISSGGRTNYADSVKGRFTISRDNAKNTVYLQMNSLKPEDTAVYYCAARYRREKAGYRWDIFYWGQGTQVTVSS”, the “polyreactivity (PSR sort gate)” value is given as “high polyreactivity”.
